Residue numbers refer to the chain shown, from its start. Names may count otherwise.
T1: TNFR1 (Homo sapiens, UniProt P19438)
T1 chain: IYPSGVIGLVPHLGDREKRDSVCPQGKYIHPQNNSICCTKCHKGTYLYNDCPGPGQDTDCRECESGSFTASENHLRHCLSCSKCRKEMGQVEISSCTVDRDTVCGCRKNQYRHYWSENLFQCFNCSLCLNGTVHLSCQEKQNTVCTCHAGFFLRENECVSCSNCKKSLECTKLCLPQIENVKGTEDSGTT

B1: W70I (designed binder)
chain: MTLQELLREEALRRAEAEAFRYALELLAEKFPEQKEYLLDLAEEIESQIRSLSGVDVEDVRKFLDKEWAIVKELLAEHPAELAEVEAARAARLAELRAEVEAKVAA
B2: A11T (designed binder)
chain: B1 chain with A11T, I70W
B3: L24Y (designed binder)
chain: B1 chain with L24Y, I70W
B4: Q4S (designed binder)
chain: B1 chain with Q4S, I70W
B5: A76G (designed binder)
chain: B1 chain with I70W, A76G
B6: E77F (designed binder)
chain: B1 chain with I70W, E77F
B7: T2E (designed binder)
chain: B1 chain with T2E, I70W
B8: A87D (designed binder)
chain: B1 chain with I70W, A87D
B9: E10D (designed binder)
chain: B1 chain with E10D, I70W
B10: W68R (designed binder)
chain: B1 chain with W68R, I70W
B11: L64S (designed binder)
chain: B1 chain with L64S, I70W
B12: E95H (designed binder)
chain: B1 chain with I70W, E95H
B13: A69G (designed binder)
chain: B1 chain with A69G, I70W
B14: L3Y (designed binder)
chain: B1 chain with L3Y, I70W
B15: V60W (designed binder)
chain: B1 chain with V60W, I70W
B16: D65K (designed binder)
chain: B1 chain with D65K, I70W
B17: E18I (designed binder)
chain: B1 chain with E18I, I70W
B18: E36S (designed binder)
chain: B1 chain with E36S, I70W
B19: E9A (designed binder)
chain: B1 chain with E9A, I70W
B20: E33S (designed binder)
chain: B1 chain with E33S, I70W
B21: R14E (designed binder)
chain: B1 chain with R14E, I70W
B22: A15P (designed binder)
chain: B1 chain with A15P, I70W
B23: A17D (designed binder)
chain: B1 chain with A17D, I70W
B24: E81A (designed binder)
chain: B1 chain with I70W, E81A
B25: E73L (designed binder)
chain: B1 chain with I70W, E73L
B26: W70Q (designed binder)
chain: B1 chain with I70Q
B27: A98G (designed binder)
chain: B1 chain with I70W, A98G
B28: L64C (designed binder)
chain: B1 chain with L64C, I70W
B29: F63S (designed binder)
chain: B1 chain with F63S, I70W
B30: F31W (designed binder)
chain: B1 chain with F31W, I70W
B31: L82M (designed binder)
chain: B1 chain with I70W, L82M
B32: A28M (designed binder)
chain: B1 chain with A28M, I70W
B33: A90Y (designed binder)
chain: B1 chain with I70W, A90Y
B34: A94N (designed binder)
chain: B1 chain with I70W, A94N
B35: R14W (designed binder)
chain: B1 chain with R14W, I70W
B36: S53V (designed binder)
chain: B1 chain with S53V, I70W
B37: R92L (designed binder)
chain: B1 chain with I70W, R92L
B38: A91W (designed binder)
chain: B1 chain with I70W, A91W
B39: A83D (designed binder)
chain: B1 chain with I70W, A83D
B40: A83T (designed binder)
chain: B1 chain with I70W, A83T
B41: A42D (designed binder)
chain: B1 chain with A42D, I70W
B42: A19N (designed binder)
chain: B1 chain with A19N, I70W
B43: L74V (designed binder)
chain: B1 chain with I70W, L74V
B44: A80G (designed binder)
chain: B1 chain with I70W, A80G
B45: V100N (designed binder)
chain: B1 chain with I70W, V100N
B46: E77T (designed binder)
chain: B1 chain with I70W, E77T
B47: A94F (designed binder)
chain: B1 chain with I70W, A94F
B48: V104E (designed binder)
chain: B1 chain with I70W, V104E
B49: V104C (designed binder)
chain: B1 chain with I70W, V104C
B50: A91E (designed binder)
chain: B1 chain with I70W, A91E
B51: E81N (designed binder)
chain: B1 chain with I70W, E81N
B52: E84H (designed binder)
chain: B1 chain with I70W, E84H
B53: K72Q (designed binder)
chain: B1 chain with I70W, K72Q
B54: A80C (designed binder)
chain: B1 chain with I70W, A80C
B55: G54F (designed binder)
chain: B1 chain with G54F, I70W
B56: R89T (designed binder)
chain: B1 chain with I70W, R89T
B57: D40L (designed binder)
chain: B1 chain with D40L, I70W
B58: W68G (designed binder)
chain: B1 chain with W68G, I70W
B59: D65N (designed binder)
chain: B1 chain with D65N, I70W

Biological target: T1, TNFR1
Assay: yeast display SC50

Row | apparent Kd (screen) [nM] | Binder
1 | 13.8 | B1
2 | 0.593 | B2
3 | 0.539 | B3
4 | 1.16 | B4
5 | 0.49 | B5
6 | 0.446 | B6
7 | 2.73 | B7
8 | 0.49 | B8
9 | 0.539 | B9
10 | 2.48 | B10
11 | 24.4 | B11
12 | 0.653 | B12
13 | 0.653 | B13
14 | 0.593 | B14
15 | 0.79 | B15
16 | 0.539 | B16
17 | 0.539 | B17
18 | 0.405 | B18
19 | 1.4 | B19
20 | 0.49 | B20

Row | apparent Kd (screen) [nM] | Binder
21 | 0.653 | B21
22 | 2.73 | B22
23 | 0.79 | B23
24 | 0.718 | B24
25 | 0.653 | B25
26 | 15.2 | B26
27 | 0.718 | B27
28 | 2.48 | B28
29 | 0.956 | B29
30 | 1.16 | B30
31 | 0.49 | B31
32 | 9.41 | B32
33 | 0.718 | B33
34 | 0.653 | B34
35 | 0.539 | B35
36 | 2.48 | B36
37 | 0.446 | B37
38 | 0.718 | B38
39 | 0.49 | B39
40 | 0.593 | B40

Row | apparent Kd (screen) [nM] | Binder
41 | 1.86 | B41
42 | 0.446 | B42
43 | 2.48 | B43
44 | 0.79 | B44
45 | 0.593 | B45
46 | 0.49 | B46
47 | 0.593 | B47
48 | 0.653 | B48
49 | 0.49 | B49
50 | 0.593 | B50
51 | 0.539 | B51
52 | 0.869 | B52
53 | 0.539 | B53
54 | 0.49 | B54
55 | 12.5 | B55
56 | 0.446 | B56
57 | 1.4 | B57
58 | 0.718 | B58
59 | 0.49 | B59

Reference: PMC12416549 (2024)
